The values that follow come from the supplement of paper PMC5998384.

Series [1] has as its system HeLa Kyoto. In words: thermal stability score vs G1/S (z-score of summed log2 fold changes over temperatures); higher = more thermally stable than in G1/S.
The subject of series [2] is HeLa Kyoto. Nature of the series: solubility in G1/S (NP-40 vs SDS abundance) (log2 ratio); higher = more soluble. As to conditions: cell cycle stage: G1/S.
For series [3], the system named is HeLa Kyoto. In words: solubility change mitosis vs G1/S (difference of NP-40 vs SDS log2 ratios) (log2 ratio difference); higher = more soluble in mitosis.
Series [4] relates to HeLa Kyoto. In words: melting temperature (median over replicates), in situ; higher = more thermally stable.
Where [5] appears, read: cell cycle stage: early G1 (4.5 h after nocodazole release).
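Throughout, for melting temperature (median over replicates), in situ: HeLa Kyoto cells synchronized by double thymidine or nocodazole block, proteins quantified by TMT10plex mass spectrometry, three independent biological replicates.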
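Throughout, for solubility change mitosis vs G1/S (difference of NP-40 vs SDS log2 ratios): synchronized HeLa Kyoto cells (double thymidine block for G1/S, nocodazole release for mitosis), protein amounts in NP-40 versus SDS lysates quantified by mass spectrometry, three biological replicates.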
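Throughout, for solubility in G1/S (NP-40 vs SDS abundance): HeLa Kyoto cells arrested at G1/S by double thymidine block, proteins quantified by TMT10plex mass spectrometry in mild NP-40 versus SDS extracts, three biological replicates.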
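Throughout, for thermal stability score vs G1/S (z-score of summed log2 fold changes over temperatures): synchronized HeLa Kyoto cells, proteins quantified by TMT10plex mass spectrometry, three biological replicates, mitosis taken 0.5 h after nocodazole release, G1/S directly after double thymidine block.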

As to “MESAAALHFSRPASLLLLLLSLCALVSAQFIVVGPTDPILATVGENTTLRCHLSPEKNAEDMEVRWFRSQFSPAVFVYKGGRERTEEQMEEYRGRTTFVSKDISRGSVALVIHNITAQENGTYRCYFQEGRSYDEAILHLVVAGLGSKPLISMRGHEDGGIRLECISRGWYPKPLTVWRDPYGGVAPALKEVSMPDADGLFMVTTAVIIRDKSVRNMSCSINNTLLGQKKESVIFIPESFMPSVSPCAVALPIIVVILMIPIAVCIYWINKLQKEKKILSGEKEFERETREIALKELEKERVQKEEELQVKEKLQEELRWRRTFLHAVDVVLDPDTAHPDLFLSEDRRSVRRCPFRHLGESVPDNPERFDSQPCVLGRESFASGKHYWEVEVENVIEWTVGVCRDSVERKGEVLLIPQNGFWTLEMHKGQYRAVSSPDRILPLKESLCRVGVFLDYEAGDVSFYNMRDRSHIYTCPRSAFSVPVRPFFRLGCEDSPIFICPALTGANGVTVPEEGLTLHRVGTHQSL [BTN2A1]”, the thermal stability score is -0.399 in series [1] (setting [5]) and -0.343 in series [1] (cell cycle stage: mitosis). In series [2], the “solubility in G1/S (log2)” value is -0.062. Moreover, the “solubility change mitosis (log2)” value in series [3] is -0.101. Moreover, the melting temperature in series [4] (cell cycle stage: G1/S) is 52.7 °C; in series [4] (cell cycle stage: mitosis), 53.4 °C.

Take “MESGAYGAAKAGGSFDLRRFLTQPQVVARAVCLVFALIVFSCIYGEGYSNAHESKQMYCVFNRNEDACRYGSAIGVLAFLASAFFLVVDAYFPQISNATDRKYLVIGDLLFSALWTFLWFVGFCFLTNQWAVTNPKDVLVGADSVRAAITFSFFSIFSWGVLASLAYQRYKAGVDDFIQNYVDPTPDPNTAYASYPGASVDNYQQPPFTQNAETTEGYQPPPVY [SYNGR2]”: the values for the thermal stability score in series [1] (setting [5]) and in series [1] (cell cycle stage: mitosis) were -2 and -3.51, respectively. Moreover, the “solubility in G1/S (log2)” value in series [2] is 0.192. Also, in series [3], the “solubility change mitosis (log2)” value is -0.171. Moreover, the results for the melting temperature in series [4] (cell cycle stage: G1/S) and in series [4] (cell cycle stage: mitosis) were 54.9 °C and 56.3 °C, respectively.

On to “MESRKLISATDIQYSGSLLNSLNEQRGHGLFCDVTVIVEDRKFRAHKNILSASSTYFHQLFSVAGQVVELSFIRAEIFAEILNYIYSSKIVRVRSDLLDELIKSGQLLGVKFIAELGVPLSQVKSISGTAQDGNTEPLPPDSGDKNLVIQKSKDEAQDNGATIMPIITESFSLSAEDYEMKKIIVTDSDDDDDDVIFCSEILPTKETLPSNNTVAQVQSNPGPVAISDVAPSASNNSPPLTNITPTQKLPTPVNQATLSQTQGSEKLLVSSAPTHLTPNIILLNQTPLSTPPNVSSSLPNHMPSSINLLVQNQQTPNSAILTGNKANEEEEEEIIDDDDDTISSSPDSAVSNTSLVPQADTSQNTSFDGSLIQKMQIPTLLQEPLSNSLKISDIITRNTNDPGVGSKHLMEGQKIITLDTATEIEGLSTGCKVYANIGEDTYDIVIPVKDDPDEGEARLENEIPKTSGSEMANKRMKVKHDDHYELIVDGRVYYICIVCKRSYVCLTSLRRHFNIHSWEKKYPCRYCEKVFPLAEYRTKHEIHHTGERRYQCLACGKSFINYQFMSSHIKSVHSQDPSGDSKLYRLHPCRSLQIRQYAYLSDRSSTIPAMKDDGIGYKVDTGKEPPVGTTTSTQNKPMTWEDIFIQQENDSIFKQNVTDGSTEFEFIIPESY [ZBTB33]”, for which the thermal stability score in series [1] (setting [5]) is 1.76; in series [1] (cell cycle stage: mitosis), 3.1. Also, the “solubility in G1/S (log2)” value in series [2] is -0.035. In addition, the “solubility change mitosis (log2)” value in series [3] is -0.162. The melting temperature in series [4] (cell cycle stage: G1/S) came out at 46.4 °C; in series [4] (cell cycle stage: mitosis) it was 51.6 °C.

On to “MESYHKPDQQKLQALKDTANRLRISSIQATTAAGSGHPTSCCSAAEIMAVLFFHTMRYKSQDPRNPHNDRFVLSKGHAAPILYAVWAEAGFLAEAELLNLRKISSDLDGHPVPKQAFTDVATGSLGQGLGAACGMAYTGKYFDKASYRVYCLLGDGELSEGSVWEAMAFASIYKLDNLVAILDINRLGQSDPAPLQHQMDIYQKRCEAFGWHAIIVDGHSVEELCKAFGQAKHQPTAIIAKTFKGRGITGVEDKESWHGKPLPKNMAEQIIQEIYSQIQSKKKILATPPQEDAPSVDIANIRMPSLPSYKVGDKIATRKAYGQALAKLGHASDRIIALDGDTKNSTFSEIFKKEHPDRFIECYIAEQNMVSIAVGCATRNRTVPFCSTFAAFFTRAFDQIRMAAISESNINLCGSHCGVSIGEDGPSQMALEDLAMFRSVPTSTVFYPSDGVATEKAVELAANTKGICFIRTSRPENAIIYNNNEDFQVGQAKVVLKSKDDQVTVIGAGVTLHEALAAAELLKKEKINIRVLDPFTIKPLDRKLILDSARATKGRILTVEDHYYEGGIGEAVSSAVVGEPGITVTHLAVNRVPRSGKPAELLKMFGIDRDAIAQAVRGLITKA [TKT]”, for which the thermal stability score in series [1] (setting [5]) is -3.36; in series [1] (cell cycle stage: mitosis), -2.81. Besides, in series [2], the “solubility in G1/S (log2)” value came to 0.148. Also, the “solubility change mitosis (log2)” value in series [3] was -0.0914. Besides, the melting temperature in series [4] (cell cycle stage: G1/S) is 61.8 °C; in series [4] (cell cycle stage: mitosis), 60.1 °C.

Turning to “METESGNQEKVMEEESTEKKKEVEKKKRSRVKQVLADIAKQVDFWFGDANLHKDRFLREQIEKSRDGYVDISLLVSFNKMKKLTTDGKLIARALRSSAVVELDLEGTRIRRKKPLGERPKDEDERTVYVELLPKNVNHSWIERVFGKCGNVVYISIPHYKSTGDPKGFAFVEFETKEQAAKAIEFLNNPPEEAPRKPGIFPKTVKNKPIPALRVVEEKKKKKKKKGRMKKEDNIQAKEENMDTSNTSISKMKRSRPTSEGSDIESTEPQKQCSKKKKKRDRVEASSLPEVRTGKRKRSSSEDAESLAPRSKVKKIIQKDIIKEASEASKENRDIEISTEEEKDTGDLKDSSLLKTKRKHKKKHKERHKMGEEVIPLRVLSKSEWMDLKKEYLALQKASMASLKKTISQIKSESEMETDSGVPQNTGMKNEKTANREECRTQEKVNATGPQFVSGVIVKIISTEPLPGRKQVRDTLAAISEVLYVDLLEGDTECHARFKTPEDAQAVINAYTEINKKHCWKLEILSGDHEQRYWQKILVDRQAKLNQPREKKRGTEKLITKAEKIRLAKTQQASKHIRFSEYD [LARP7]”, the thermal stability score in series [1] (setting [5]) came to 0.456; in series [1] (cell cycle stage: mitosis), 1.1. Moreover, the “solubility in G1/S (log2)” value in series [2] was -0.53. For the same sequence, the “solubility change mitosis (log2)” value in series [3] is 0.194. The melting temperature in series [4] (cell cycle stage: G1/S) was 48.8 °C; in series [4] (cell cycle stage: mitosis) it was 50.1 °C.

In the case of “METFDPTELPELLKLYYRRLFPYSQYYRWLNYGGVIKNYFQHREFSFTLKDDIYIRYQSFNNQSDLEKEMQKMNPYKIDIGAVYSHRPNQHNTVKLGAFQAQEKELVFDIDMTDYDDVRRCCSSADICPKCWTLMTMAIRIIDRALKEDFGFKHRLWVYSGRRGVHCWVCDESVRKLSSAVRSGIVEYLSLVKGGQDVKKKVHLSEKIHPFIRKSINIIKKYFEEYALVNQDILENKESWDKILALVPETIHDELQQSFQKSHNSLQRWEHLKKVASRYQNNIKNDKYGPWLEWEIMLQYCFPRLDINVSKGINHLLKSPFSVHPKTGRISVPIDLQKVDQFDPFTVPTISFICRELDAISTNEEEKEENEAESDVKHRTRDYKKTSLAPYVKVFEHFLENLDKSRKGELLKKSDLQKDF [PRIM1]”, the thermal stability score in series [1] (setting [5]) came out at 0.672; in series [1] (cell cycle stage: mitosis) it was 1.37. In addition, the “solubility in G1/S (log2)” value in series [2] was -0.144. For the same sequence, in series [3], the “solubility change mitosis (log2)” value was -0.247. The melting temperature in series [4] (cell cycle stage: G1/S) stood at 48.8 °C; in series [4] (cell cycle stage: mitosis), 49.6 °C.
